Experiments:
Test in all cases: holdup assay
Design in all cases: key: below the threshold = too weak to quantify, mostly under pKd 3.1 to 4
[1] = biological target: CASK, O14936
[2] = biological target: T1, DLG3_1, Q92796
T1 sequence (Q92796 125-227, limits assumed, looked up): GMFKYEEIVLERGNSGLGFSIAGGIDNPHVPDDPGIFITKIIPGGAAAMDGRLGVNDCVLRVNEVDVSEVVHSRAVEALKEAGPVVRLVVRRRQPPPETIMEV

[3] = biological target: T2, DLG3_2, Q92796
T2 sequence (Q92796 221-321, limits assumed, looked up): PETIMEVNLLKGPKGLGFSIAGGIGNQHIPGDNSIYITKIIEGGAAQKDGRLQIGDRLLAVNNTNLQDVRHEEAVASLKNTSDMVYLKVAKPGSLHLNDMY

[4] = biological target: DLG4_1, P78352
Chain of DLG4_1, P78352 (P78352 62-152): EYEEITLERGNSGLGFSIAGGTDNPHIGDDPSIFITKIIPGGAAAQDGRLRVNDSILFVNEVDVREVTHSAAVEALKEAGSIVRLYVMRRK

[5] = biological target: FRMPD2_1, Q68DX3
Chain of FRMPD2_1, Q68DX3 (Q68DX3 770-861): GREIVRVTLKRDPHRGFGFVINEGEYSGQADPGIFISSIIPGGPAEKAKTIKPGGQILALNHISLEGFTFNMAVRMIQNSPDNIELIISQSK

[6] = biological target: FRMPD2_2, Q68DX3
Chain of FRMPD2_2, Q68DX3 (Q68DX3 944-1038): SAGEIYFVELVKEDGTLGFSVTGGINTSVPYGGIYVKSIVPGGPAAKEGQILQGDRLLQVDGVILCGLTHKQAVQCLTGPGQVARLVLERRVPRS

[7] = biological target: FRMPD2_3, Q68DX3
Chain of FRMPD2_3, Q68DX3 (Q68DX3 1073-1166): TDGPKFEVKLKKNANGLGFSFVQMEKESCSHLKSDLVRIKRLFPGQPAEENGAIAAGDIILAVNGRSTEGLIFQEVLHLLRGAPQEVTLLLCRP

[8] = biological target: GORASP1, Q9BQQ3
Chain of GORASP1, Q9BQQ3 (Q9BQQ3 1-208): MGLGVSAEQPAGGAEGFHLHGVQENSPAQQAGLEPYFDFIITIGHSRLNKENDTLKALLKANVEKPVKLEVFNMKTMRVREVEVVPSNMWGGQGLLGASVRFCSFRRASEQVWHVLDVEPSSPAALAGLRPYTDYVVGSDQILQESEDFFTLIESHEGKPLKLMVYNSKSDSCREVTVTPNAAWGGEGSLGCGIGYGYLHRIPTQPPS

[9] = biological target: GORASP2, Q9H8Y8
[10] = biological target: GRID2IP_1, A4D2P6
Chain of GRID2IP_1, A4D2P6 (A4D2P6 1-87): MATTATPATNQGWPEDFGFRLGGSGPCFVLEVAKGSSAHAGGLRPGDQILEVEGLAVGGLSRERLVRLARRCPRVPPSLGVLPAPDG

[11] = biological target: T3, GRIP1_7, Q9Y3R0
T3 sequence (Q9Y3R0 999-1096, limits assumed, looked up): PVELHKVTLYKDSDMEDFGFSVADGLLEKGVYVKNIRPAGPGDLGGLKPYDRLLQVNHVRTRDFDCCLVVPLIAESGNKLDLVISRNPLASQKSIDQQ

[12] = biological target: T4, HTRA3, P83110
T4 sequence (P83110 354-453, limits assumed, looked up): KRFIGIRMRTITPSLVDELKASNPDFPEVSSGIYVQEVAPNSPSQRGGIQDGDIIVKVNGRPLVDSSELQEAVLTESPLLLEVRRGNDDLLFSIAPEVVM

[13] = biological target: Inadl_5, Q8NI35
Chain of Inadl_5, Q8NI35 (Q8NI35 673-780): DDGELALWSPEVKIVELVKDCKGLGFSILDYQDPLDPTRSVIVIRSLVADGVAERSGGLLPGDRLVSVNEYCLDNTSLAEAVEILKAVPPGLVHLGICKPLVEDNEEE

[14] = biological target: Inadl_8, Q8NI35
Chain of Inadl_8, Q8NI35 (Q8NI35 1425-1530): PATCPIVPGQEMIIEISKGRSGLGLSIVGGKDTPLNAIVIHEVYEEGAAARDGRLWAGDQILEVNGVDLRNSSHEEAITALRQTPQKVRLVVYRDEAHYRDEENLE

[15] = biological target: LAP2, Q96RT1
Chain of LAP2, Q96RT1 (Q96RT1 other isoform, or with tags, fused parts or gaps): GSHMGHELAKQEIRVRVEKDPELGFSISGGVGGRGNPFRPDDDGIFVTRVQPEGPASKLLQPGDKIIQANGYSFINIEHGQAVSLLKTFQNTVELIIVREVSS

[16] = biological target: T5, LIN7A, O14910
T5 sequence (O14910 103-200, limits assumed, looked up): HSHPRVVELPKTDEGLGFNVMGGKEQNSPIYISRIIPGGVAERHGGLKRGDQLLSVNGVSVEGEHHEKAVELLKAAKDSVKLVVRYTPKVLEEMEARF

[17] = biological target: MAGI1_1, Q96QZ7
Chain of MAGI1_1, Q96QZ7 (Q96QZ7 1-106): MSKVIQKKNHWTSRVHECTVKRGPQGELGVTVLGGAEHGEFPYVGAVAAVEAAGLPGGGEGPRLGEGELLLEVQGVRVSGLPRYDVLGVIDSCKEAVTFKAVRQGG

[18] = biological target: MAGI2_6, Q86UL8
Chain of MAGI2_6, Q86UL8 (Q86UL8 1141-1229): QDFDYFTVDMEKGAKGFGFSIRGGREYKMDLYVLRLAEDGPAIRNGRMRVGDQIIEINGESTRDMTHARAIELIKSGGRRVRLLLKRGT

[19] = biological target: MAGI3_2, Q5TCQ9
Chain of MAGI3_2, Q5TCQ9 (Q5TCQ9 398-503): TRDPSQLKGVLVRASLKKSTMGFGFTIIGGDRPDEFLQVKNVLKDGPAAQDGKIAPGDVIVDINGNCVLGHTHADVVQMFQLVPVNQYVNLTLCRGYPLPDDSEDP

[20] = biological target: T6, MPDZ_5, O75970
T6 sequence (O75970 695-796, limits assumed, looked up): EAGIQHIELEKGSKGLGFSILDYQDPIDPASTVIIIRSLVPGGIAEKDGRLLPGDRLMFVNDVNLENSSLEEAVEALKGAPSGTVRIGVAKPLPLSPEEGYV

[21] = biological target: T7, NHERF3_3, Q5T2W1
T7 sequence (Q5T2W1 238-333, limits assumed, looked up): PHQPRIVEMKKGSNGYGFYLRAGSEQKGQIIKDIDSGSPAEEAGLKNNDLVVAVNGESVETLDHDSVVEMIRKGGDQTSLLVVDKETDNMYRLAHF

[22] = biological target: T8, NHERF3_4, Q5T2W1
T8 sequence (Q5T2W1 373-468, limits assumed, looked up): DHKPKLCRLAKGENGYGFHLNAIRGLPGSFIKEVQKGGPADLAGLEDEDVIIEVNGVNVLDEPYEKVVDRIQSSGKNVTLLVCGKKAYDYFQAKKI

[23] = biological target: T9, PDZD2_2, O15018
T9 sequence (O15018 329-429, limits assumed, looked up): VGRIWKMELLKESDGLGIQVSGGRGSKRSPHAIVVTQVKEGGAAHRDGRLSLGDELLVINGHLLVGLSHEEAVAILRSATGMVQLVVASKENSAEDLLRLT

[24] = biological target: T10, RHPN1, Q8TCX5
T10 sequence (Q8TCX5 508-602, limits assumed, looked up): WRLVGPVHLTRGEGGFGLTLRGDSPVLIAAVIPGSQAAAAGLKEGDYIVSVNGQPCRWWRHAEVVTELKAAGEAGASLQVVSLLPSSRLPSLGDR

[25] = biological target: SCRIB_2, Q14160
Chain of SCRIB_2, Q14160 (Q14160 857-960): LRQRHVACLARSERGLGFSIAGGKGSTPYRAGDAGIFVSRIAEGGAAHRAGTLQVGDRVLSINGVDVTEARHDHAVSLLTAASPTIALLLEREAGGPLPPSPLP

[26] = biological target: T11, SNTB1, Q13884
T11 sequence (Q13884 107-205, limits assumed, looked up): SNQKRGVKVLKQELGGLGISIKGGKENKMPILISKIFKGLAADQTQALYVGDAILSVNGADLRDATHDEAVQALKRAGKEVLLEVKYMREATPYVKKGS

[27] = biological target: TJP1_2, Q07157
Chain of TJP1_2, Q07157 (Q07157 181-274): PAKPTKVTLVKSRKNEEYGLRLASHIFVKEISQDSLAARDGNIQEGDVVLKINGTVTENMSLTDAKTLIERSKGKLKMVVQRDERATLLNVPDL

[28] = plain residues with an end cap or a label only (N-terminal biotin on a linker: ahx)
[29] = plain residues with an end cap or a label only (N-terminal biotin on a linker: ado-ado)

Chain of CASK, O14936 (O14936 487-570): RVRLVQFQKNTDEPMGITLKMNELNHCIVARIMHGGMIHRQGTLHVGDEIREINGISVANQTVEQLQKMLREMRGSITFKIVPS

## TESNLQTSSC [CGN, Q9P2M7]
[1]; [28]
  pKd: below the threshold
[2]; [28]
  pKd: below the threshold
[3]; [28]
  pKd: below the threshold
[4]; [28]
  pKd: below the threshold
[5]; [28]
  pKd: below the threshold
[6]; [28]
  pKd: below the threshold
[7]; [28]
  pKd: below the threshold
[8]; [28]
  pKd: below the threshold
[9]; [28]
  pKd: below the threshold
[10]; [28]
  pKd: below the threshold
[11]; [28]
  pKd: below the threshold
[12]; [28]
  pKd: below the threshold
[13]; [28]
  pKd: below the threshold
[14]; [28]
  pKd: 4.18
[15]; [28]
  pKd: below the threshold
[16]; [28]
  pKd: below the threshold
[17]; [28]
  pKd: below the threshold
[18]; [28]
  pKd: below the threshold
[19]; [28]
  pKd: below the threshold
[20]; [28]
  pKd: below the threshold
[21]; [28]
  pKd: below the threshold
[22]; [28]
  pKd: below the threshold
[23]; [28]
  pKd: 4.1
[24]; [28]
  pKd: 4.44
[25]; [28]
  pKd: below the threshold
[26]; [28]
  pKd: below the threshold
[27]; [28]
  pKd: below the threshold

## DGVNEKVSCV [HTR2A, P28223]
[1]; [29]
  pKd: below the threshold
[2]; [29]
  pKd: below the threshold
[3]; [29]
  pKd: 4.82
[4]; [29]
  pKd: 3.69
[5]; [29]
  pKd: below the threshold
[6]; [29]
  pKd: 4.65
[7]; [29]
  pKd: 3.53
[8]; [29]
  pKd: below the threshold
[9]; [29]
  pKd: 3.74
[10]; [29]
  pKd: below the threshold
[11]; [29]
  pKd: below the threshold
[12]; [29]
  pKd: 3.94
[13]; [29]
  pKd: below the threshold
[14]; [29]
  pKd: 4.81
[15]; [29]
  pKd: below the threshold
[16]; [29]
  pKd: 3.51
[17]; [29]
  pKd: below the threshold
[18]; [29]
  pKd: 4.47
[19]; [29]
  pKd: 4.47
[20]; [29]
  pKd: below the threshold
[21]; [29]
  pKd: below the threshold
[22]; [29]
  pKd: below the threshold
[23]; [29]
  pKd: 6
[24]; [29]
  pKd: 4.66
[25]; [29]
  pKd: 3.64
[26]; [29]
  pKd: 4.72
[27]; [29]
  pKd: below the threshold

## EPQYQPGENL [SRC, P12931]
[1]; [29]
  pKd: below the threshold
[2]; [29]
  pKd: below the threshold
[3]; [29]
  pKd: below the threshold
[4]; [29]
  pKd: below the threshold
[5]; [29]
  pKd: below the threshold
[6]; [29]
  pKd: below the threshold
[7]; [29]
  pKd: below the threshold
[8]; [29]
  pKd: below the threshold
[9]; [29]
  pKd: below the threshold
[10]; [29]
  pKd: below the threshold
[11]; [29]
  pKd: below the threshold
[12]; [29]
  pKd: below the threshold
[13]; [29]
  pKd: below the threshold
[14]; [29]
  pKd: below the threshold
[15]; [29]
  pKd: below the threshold
[16]; [29]
  pKd: below the threshold
[17]; [29]
  pKd: below the threshold
[18]; [29]
  pKd: 3.84
[19]; [29]
  pKd: below the threshold
[20]; [29]
  pKd: below the threshold
[21]; [29]
  pKd: below the threshold
[22]; [29]
  pKd: below the threshold
[23]; [29]
  pKd: below the threshold
[24]; [29]
  pKd: below the threshold
[25]; [29]
  pKd: below the threshold
[26]; [29]
  pKd: 3.58
[27]; [29]
  pKd: below the threshold

## APSRKLNTEI [TIAM1, Q13009]
[1]; [28]
  pKd: below the threshold
[2]; [28]
  pKd: below the threshold
[3]; [28]
  pKd: 3.72
[4]; [28]
  pKd: below the threshold
[5]; [28]
  pKd: below the threshold
[6]; [28]
  pKd: below the threshold
[7]; [28]
  pKd: below the threshold
[8]; [28]
  pKd: below the threshold
[9]; [28]
  pKd: below the threshold
[10]; [28]
  pKd: below the threshold
[11]; [28]
  pKd: below the threshold
[12]; [28]
  pKd: below the threshold
[13]; [28]
  pKd: below the threshold
[14]; [28]
  pKd: below the threshold
[15]; [28]
  pKd: below the threshold
[16]; [28]
  pKd: below the threshold
[17]; [28]
  pKd: below the threshold
[18]; [28]
  pKd: below the threshold
[19]; [28]
  pKd: below the threshold
[20]; [28]
  pKd: below the threshold
[21]; [28]
  pKd: below the threshold
[22]; [28]
  pKd: below the threshold
[23]; [28]
  pKd: below the threshold
[24]; [28]
  pKd: 3.88
[25]; [28]
  pKd: below the threshold
[26]; [28]
  pKd: below the threshold
[27]; [28]
  pKd: below the threshold
